The target in assay [1] is Eg5 (UniProt P52732).
In assay [2] the target is T1, Eg5 (UniProt P52732 1-1056).
T1 sequence: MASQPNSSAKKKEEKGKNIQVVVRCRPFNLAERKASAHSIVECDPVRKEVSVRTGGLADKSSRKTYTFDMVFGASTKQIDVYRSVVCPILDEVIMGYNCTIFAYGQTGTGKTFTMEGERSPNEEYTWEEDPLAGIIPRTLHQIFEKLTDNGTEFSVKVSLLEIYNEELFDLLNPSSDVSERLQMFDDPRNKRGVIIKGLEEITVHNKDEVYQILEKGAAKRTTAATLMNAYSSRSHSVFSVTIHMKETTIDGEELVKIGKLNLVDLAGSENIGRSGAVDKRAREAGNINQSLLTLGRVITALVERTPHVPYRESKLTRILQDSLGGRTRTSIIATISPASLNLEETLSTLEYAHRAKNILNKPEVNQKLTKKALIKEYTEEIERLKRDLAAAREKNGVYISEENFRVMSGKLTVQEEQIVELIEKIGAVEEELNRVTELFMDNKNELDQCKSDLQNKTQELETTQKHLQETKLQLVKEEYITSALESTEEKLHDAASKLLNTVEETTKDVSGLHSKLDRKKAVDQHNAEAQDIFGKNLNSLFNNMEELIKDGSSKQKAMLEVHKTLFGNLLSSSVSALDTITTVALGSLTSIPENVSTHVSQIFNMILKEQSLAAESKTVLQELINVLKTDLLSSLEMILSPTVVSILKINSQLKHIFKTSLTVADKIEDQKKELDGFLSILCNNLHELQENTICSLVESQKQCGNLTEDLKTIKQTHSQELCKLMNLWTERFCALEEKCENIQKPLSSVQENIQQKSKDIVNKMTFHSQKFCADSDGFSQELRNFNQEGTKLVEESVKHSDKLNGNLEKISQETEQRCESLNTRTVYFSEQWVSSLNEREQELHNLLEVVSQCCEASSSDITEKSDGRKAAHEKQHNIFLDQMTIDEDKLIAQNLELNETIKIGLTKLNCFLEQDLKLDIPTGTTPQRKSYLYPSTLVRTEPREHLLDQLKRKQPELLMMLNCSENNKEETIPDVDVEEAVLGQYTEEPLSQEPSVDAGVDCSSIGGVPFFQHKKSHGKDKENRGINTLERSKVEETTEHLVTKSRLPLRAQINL

“GFP-TPX2-2D (from UniProt Q9ULW0 1-747) (natural protein)” yielded a binding relative to WT (% less than WT) in assay [1] of 41.

B1: GFP-TPX2-2A (S121/125A) (natural protein)
chain: MSQVKSSYSYDAPSDFINFSSLDDEGDTQNIDSWFEEKANLENKLLGKNGTGGLFQGKTPLRKANLQQAIVTPLKPVDNTYYKEAEKENLVEQSIPSNACSSLEVEAAISRKTPAQPQRRALRLAAQKDLEQKEKHHVKMKAKRCATPVIIDEILPSKKMKVSNNKKKPEEEGSAHQDTAEKNASSPEKAKGRHTVPCMPPAKQKFLKSTEEQELEKSMKMQQEVVEMRKKNEEFKKLALAGIGQPVKKSVSQVTKSVDFHFRTDERIKQHPKNQEEYKEVNFTSELRKHPSSPARVTKGCTIVKPFNLSQGKKRTFDETVSTYVPLAQQVEDFHKRTPNRYHLRSKKDDINLLPSKSSVTKICRDPQTPVLQTKHRARAVTCKSTAELEAEELEKLQQYKFKARELDPRILEGGPILPKKPPVKPPTEPIGFDLEIEKRIQERESKKKTEDEHFEFHSRPCPTKILEDVVGVPEKKVLPITVPKSPAFALKNRIRMPTKEDEEEDEPVVIKAQPVPHYGVPFKPQIPEARTVEICPFSFDSRDKERQLQKEKKIKELQKGEVPKFKALPLPHFDTINLPEKKVKNVTQIEPFCLETDRRGALKAQTWKHQLEEELRQQKEAACFKARPNTVISQEPFVPKKEKKSVAEGLSGSLVQEPFQLATEKRAKERQELEKRMAEVEAQKAQQLEEARLQEEEQKKEELARLRRELVHKANPIRKYQGLEIKSSDQPLTVPVSPKFSTRFHC
B1: the “binding relative to WT” value in assay [2] amounted to 41 % less than WT.

For the origin of these results see PMC4523612 (The Journal of Cell Biology, 2015).
